Assays:
rat RXFP1 = target: T1, rat RXFP1 (Rattus norvegicus, UniProt Q6R6I6); assay: Relaxin-stimulated cAMP assay in HEK293 stably expressing rat RXFP1; settings: three-point selectivity screen, n = 2
T1 sequence (Q6R6I6 1-758): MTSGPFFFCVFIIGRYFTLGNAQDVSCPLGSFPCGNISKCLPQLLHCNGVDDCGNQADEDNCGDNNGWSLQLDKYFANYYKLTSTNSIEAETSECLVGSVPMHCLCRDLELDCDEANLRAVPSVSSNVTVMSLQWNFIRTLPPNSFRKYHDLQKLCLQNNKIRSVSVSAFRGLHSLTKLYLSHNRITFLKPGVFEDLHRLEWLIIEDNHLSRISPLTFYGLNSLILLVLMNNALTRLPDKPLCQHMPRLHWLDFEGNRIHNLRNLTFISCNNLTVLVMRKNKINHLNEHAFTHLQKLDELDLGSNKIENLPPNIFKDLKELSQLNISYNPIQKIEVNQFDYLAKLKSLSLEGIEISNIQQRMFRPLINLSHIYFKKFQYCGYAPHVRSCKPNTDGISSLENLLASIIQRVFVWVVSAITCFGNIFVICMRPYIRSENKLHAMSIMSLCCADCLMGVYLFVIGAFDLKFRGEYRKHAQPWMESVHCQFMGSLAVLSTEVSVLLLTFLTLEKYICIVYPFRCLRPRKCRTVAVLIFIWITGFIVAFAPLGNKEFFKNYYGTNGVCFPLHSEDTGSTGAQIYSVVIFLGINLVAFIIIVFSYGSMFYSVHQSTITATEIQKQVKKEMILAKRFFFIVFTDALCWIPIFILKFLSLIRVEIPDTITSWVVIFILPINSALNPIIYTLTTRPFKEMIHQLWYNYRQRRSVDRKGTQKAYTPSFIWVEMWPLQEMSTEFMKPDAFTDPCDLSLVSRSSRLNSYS
Experimental: RXFP activity assays were developed in HEK293 with stable expression of RXFP2 or RXFP1.
The same approach was used to generate stable HEK293 lines expressing human and rat RXFP1 and RXFP2 cDNA. The cAMP assay was conducted using the Eurofin Hithunter kit per manufacturer’s instructions in a 384-well format. All dose curve fitting and EC50 and IC50 determinations were performed in Prism (v9.3.0) using the non-linear fit, variable slope (four parameter) function.

rat RXFP2 [1] = target: T2, rat RXFP2 (Rattus norvegicus, UniProt F7EMH8); assay: Cortisol secretion (ELISA) in H295R stably expressing rat RXFP2; assay type: cell-based; set-up: expressed in transfected cells; settings: H295R-rRXFP2, 3.5 nM INSL3, 48 h, read-out: IC50 on INSL3-induced cortisol release
Experimental: RXFP2 antagonists were added to H295R-rRXFP2 before addition of INSL3 EC80 (3.5 nM) for 48 h, whereupon the cells and supernatants were collected. CYP11B1 and CYP11B2 mRNA were determined by qPCR and the RXFP2 blocker potencies were calculated (Fig. 5a). Fifteen antibodies have IC50s < 50 nM, and three of the top antibodies (1F2, 4G6, and 2D4) were selected for evaluation in steroid hormone secretion assays by ELISA.
The day after seeding, H295R cells were treated and incubated for 48 h before supernatants and cell lysates were collected. Treatments included INSL3, IgG, 1F2, and 4G6 at 0.035 pM–3.5 µM, 2D4 at 0.01 nM–1 uM, or phosphate buffered saline control. In RXFP2 antagonist assays, 3.5 nM INSL3 was used as the stimulus. Cortisol present in the adrenal cell supernatant at 48 h post treatment was detected by ELISA (R&D KGE008B). Sample dilution was optimized at 1/90 using a standard curve. Aldosterone was below the limit of detection by ELISA (R&D KGE016) and required liquid–liquid extraction (LLE) twice using methyl tetra butyl ether. Post extraction samples were dried (SPE Nitrogen dryer) and reconstituted for ELISA analysis. All samples were run in duplicates.

rat RXFP2 [2] = target: T2, rat RXFP2; assay: INSL3-stimulated cAMP assay in HEK293 stably expressing rat RXFP2; settings: INSL3 EC80-stimulated cAMP, stable expression, N = 2;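 also: cAMP measured with an HitHunter kit in 384-well plates, 11-point dose–response curves up to 1 µM antibody, four-parameter variable-slope fit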

T2 sequence (F7EMH8 20-737): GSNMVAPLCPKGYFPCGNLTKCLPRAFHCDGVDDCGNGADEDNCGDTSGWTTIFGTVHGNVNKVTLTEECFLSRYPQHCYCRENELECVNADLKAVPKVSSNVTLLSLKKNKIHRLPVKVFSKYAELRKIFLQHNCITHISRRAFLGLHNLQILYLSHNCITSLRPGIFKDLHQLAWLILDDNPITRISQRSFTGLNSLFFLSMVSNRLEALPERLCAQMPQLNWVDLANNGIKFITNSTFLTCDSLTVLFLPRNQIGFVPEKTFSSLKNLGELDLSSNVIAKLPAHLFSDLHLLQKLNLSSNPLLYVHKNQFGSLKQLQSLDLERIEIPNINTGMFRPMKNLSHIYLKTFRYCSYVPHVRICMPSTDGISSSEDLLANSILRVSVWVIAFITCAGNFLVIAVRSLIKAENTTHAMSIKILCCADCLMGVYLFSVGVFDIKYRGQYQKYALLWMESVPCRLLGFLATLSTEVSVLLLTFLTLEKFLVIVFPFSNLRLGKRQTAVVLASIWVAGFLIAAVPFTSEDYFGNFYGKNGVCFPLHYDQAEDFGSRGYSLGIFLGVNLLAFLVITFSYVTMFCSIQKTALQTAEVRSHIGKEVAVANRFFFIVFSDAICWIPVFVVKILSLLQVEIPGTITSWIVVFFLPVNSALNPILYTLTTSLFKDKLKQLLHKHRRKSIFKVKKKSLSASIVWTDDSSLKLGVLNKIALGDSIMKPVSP

B1: 4G6: Human/rat cross-reactive RXFP2 monoclonal antibody, rat IgG2b backbone; binds the LDLa domain (antibody, V domains shown)
VH: EVQLQQSGPELVKPGASVKLSCKASGYTFTSYVMHWVKQKPEQGLEWIGYKNPSNDGIKYNEKFKGKATLTSDKSSNIAYMELFSLTSEDSAVYYCARSDFGSVWAMDYWGQGTSVTVSS
VL: SIVMTQTPKFLLVSAGDRVTITCKASQSVNDDIVWYQQKPGQSPKLLIYYASNRYTGVPDRFTGSGYGTDFTFTISTVQAGDLAVYFCQQDYSSPFTFGSGTKLEIK
With B1 the “blockade of rRXFP1 (relaxin-stimulated cAMP)” value (rat RXFP1) was “did not block”, the IC50 (rat RXFP2 [1]) was 0.26 nM and the “HEK293-rat RXFP2 cAMP % Max Response” value (rat RXFP2 [2]) was 82.5%. For the same molecule, the IC50 (rat RXFP2 [2]; read-out: HEK293-rat RXFP2 cAMP IC50) was 14.1 nM.

— paper PMC11162469, “Discovery of RXFP2 genetic association in resistant hypertensive men and RXFP2 antagonists for the treatment of resistant hypertension” (Scientific Reports, 2024)
